Laboratory results: the supplement of paper PMC7125110
± gives the standard error. For some assays here: Variants at the floor of the assay were thinned out.

B1: glmS ribozyme (parent)
chain: AUAAAAGCGCCAGAACUACAGAAAUGUAGUUGACGAGGAGGAGGUUUAUCGAAUUUUCGGCGGAUGCCUCCAAA

How the values were obtained:
Conditions in all cases: with glucosamine-6-phosphate
glucosamine-6-phosphate [1] = variants of: B1; test: kcat; higher = faster cleavage; RNA array
Procedure, shortened: (§1)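 Glucosamine-6-phosphate, from 40 μM to 10 mM in HEPES/KCl/Mg(OAc)2 buffer, was flowed over sequenced MiSeq chips carrying barcoded ribozyme variants transcribed in situ by E. coli RNA polymerase. A hybridised Cy3 probe tracked the variants at 37 °C as tiles were imaged over ~14 h. kobs, kcat and KM were obtained by fitting normalised per-tile medians to exponential decays and then applying weighted Michaelis–Menten fits across concentrations.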

glucosamine-6-phosphate [2] = variants of: B1; test: KM; higher = weaker cofactor use; RNA array
Procedure, shortened: as §1

glucosamine-6-phosphate [3] = variants of: B1; test: self-cleavage kobs at 40 uM GlcN6P; higher = faster cleavage; RNA array
Procedure, shortened: as §1

glucosamine-6-phosphate [4] = variants of: B1; test: self-cleavage kobs at 160 uM GlcN6P; higher = faster cleavage; RNA array
Procedure, shortened: as §1

glucosamine-6-phosphate [5] = variants of: B1; test: self-cleavage kobs at 640 uM GlcN6P; higher = faster cleavage; RNA array
Procedure, shortened: as §1

glucosamine-6-phosphate [6] = variants of: B1; test: self-cleavage kobs at 2500 uM GlcN6P; higher = faster cleavage; RNA array
Procedure, shortened: as §1

glucosamine-6-phosphate [7] = variants of: B1; test: self-cleavage kobs at 10000 uM GlcN6P; higher = faster cleavage; RNA array
Procedure, shortened: as §1

A15C U47G
kcat (glucosamine-6-phosphate [1]): 0.000994 ± 5.2e-05 s⁻¹
KM (glucosamine-6-phosphate [2]): 1270 ± 120 µM
self-cleavage kobs at 40 uM GlcN6P (glucosamine-6-phosphate [3]): 3.18e-05 ± 7.5e-06 s⁻¹
self-cleavage kobs at 160 uM GlcN6P (glucosamine-6-phosphate [4]): 0.000121 ± 2e-05 s⁻¹
self-cleavage kobs at 640 uM GlcN6P (glucosamine-6-phosphate [5]): 0.000312 ± 3.6e-05 s⁻¹
self-cleavage kobs at 2500 uM GlcN6P (glucosamine-6-phosphate [6]): 0.000675 ± 8.1e-05 s⁻¹
self-cleavage kobs at 10000 uM GlcN6P (glucosamine-6-phosphate [7]): 0.000889 ± 9.5e-05 s⁻¹

A15G A52C
kcat (glucosamine-6-phosphate [1]): 2.96e-05 ± 2e-06 s⁻¹
KM (glucosamine-6-phosphate [2]): 1090 ± 400 µM
self-cleavage kobs at 40 uM GlcN6P (glucosamine-6-phosphate [3]): < 1e-05 s⁻¹
self-cleavage kobs at 10000 uM GlcN6P (glucosamine-6-phosphate [7]): 2.66e-05 ± 9.9e-06 s⁻¹

A15G U65C
kcat (glucosamine-6-phosphate [1]): 0.000964 ± 0.00027 s⁻¹
self-cleavage kobs at 160 uM GlcN6P (glucosamine-6-phosphate [4]): 7.34e-05 ± 2.9e-05 s⁻¹
self-cleavage kobs at 640 uM GlcN6P (glucosamine-6-phosphate [5]): 0.00026 ± 5e-05 s⁻¹
self-cleavage kobs at 2500 uM GlcN6P (glucosamine-6-phosphate [6]): 0.000852 ± 0.00013 s⁻¹
self-cleavage kobs at 10000 uM GlcN6P (glucosamine-6-phosphate [7]): 0.000673 ± 0.00014 s⁻¹

A15G C16A C70U
kcat (glucosamine-6-phosphate [1]): 0.000398 ± 6.7e-05 s⁻¹
KM (glucosamine-6-phosphate [2]): 804 ± 260 µM
self-cleavage kobs at 160 uM GlcN6P (glucosamine-6-phosphate [4]): 6.78e-05 ± 2.4e-05 s⁻¹
self-cleavage kobs at 640 uM GlcN6P (glucosamine-6-phosphate [5]): 0.000168 ± 2.9e-05 s⁻¹
self-cleavage kobs at 2500 uM GlcN6P (glucosamine-6-phosphate [6]): 0.000315 ± 6.5e-05 s⁻¹

A15G U47C
kcat (glucosamine-6-phosphate [1]): 0.0057 ± 0.00076 s⁻¹
KM (glucosamine-6-phosphate [2]): 1660 ± 350 µM
self-cleavage kobs at 40 uM GlcN6P (glucosamine-6-phosphate [3]): 0.000151 ± 3.2e-05 s⁻¹
self-cleavage kobs at 160 uM GlcN6P (glucosamine-6-phosphate [4]): 0.000348 ± 0.00016 s⁻¹
self-cleavage kobs at 640 uM GlcN6P (glucosamine-6-phosphate [5]): 0.00164 ± 0.0005 s⁻¹
self-cleavage kobs at 2500 uM GlcN6P (glucosamine-6-phosphate [6]): 0.00388 ± 0.00099 s⁻¹
self-cleavage kobs at 10000 uM GlcN6P (glucosamine-6-phosphate [7]): 0.00476 ± 0.00083 s⁻¹

A15C G32A U55A
kcat (glucosamine-6-phosphate [1]): 0.00195 ± 0.00087 s⁻¹
self-cleavage kobs at 160 uM GlcN6P (glucosamine-6-phosphate [4]): 7.61e-05 ± 2.3e-05 s⁻¹
self-cleavage kobs at 640 uM GlcN6P (glucosamine-6-phosphate [5]): 0.000233 ± 5.6e-05 s⁻¹
self-cleavage kobs at 2500 uM GlcN6P (glucosamine-6-phosphate [6]): 0.000416 ± 0.00012 s⁻¹
self-cleavage kobs at 10000 uM GlcN6P (glucosamine-6-phosphate [7]): 0.00137 ± 0.00022 s⁻¹

A15C A42G
kcat (glucosamine-6-phosphate [1]): 0.00745 ± 0.00078 s⁻¹
KM (glucosamine-6-phosphate [2]): 1450 ± 220 µM
self-cleavage kobs at 40 uM GlcN6P (glucosamine-6-phosphate [3]): 0.000206 ± 3.8e-05 s⁻¹
self-cleavage kobs at 160 uM GlcN6P (glucosamine-6-phosphate [4]): 0.000843 ± 0.00038 s⁻¹
self-cleavage kobs at 640 uM GlcN6P (glucosamine-6-phosphate [5]): 0.00216 ± 0.00062 s⁻¹
self-cleavage kobs at 2500 uM GlcN6P (glucosamine-6-phosphate [6]): 0.00411 ± 0.001 s⁻¹
self-cleavage kobs at 10000 uM GlcN6P (glucosamine-6-phosphate [7]): 0.00721 ± 0.0015 s⁻¹

A15C G29U
kcat (glucosamine-6-phosphate [1]): 0.00341 ± 0.00015 s⁻¹
KM (glucosamine-6-phosphate [2]): 2200 ± 140 µM
self-cleavage kobs at 40 uM GlcN6P (glucosamine-6-phosphate [3]): 6.18e-05 ± 8.8e-06 s⁻¹
self-cleavage kobs at 640 uM GlcN6P (glucosamine-6-phosphate [5]): 0.000757 ± 0.00012 s⁻¹
self-cleavage kobs at 2500 uM GlcN6P (glucosamine-6-phosphate [6]): 0.00169 ± 0.00042 s⁻¹
self-cleavage kobs at 10000 uM GlcN6P (glucosamine-6-phosphate [7]): 0.00285 ± 0.00042 s⁻¹

A15C C68G
kcat (glucosamine-6-phosphate [1]): 2.69e-05 ± 6.5e-06 s⁻¹
self-cleavage kobs at 2500 uM GlcN6P (glucosamine-6-phosphate [6]): 3.22e-05 ± 9e-06 s⁻¹

A15C U46C
kcat (glucosamine-6-phosphate [1]): 0.000304 ± 5.3e-05 s⁻¹
KM (glucosamine-6-phosphate [2]): 1330 ± 520 µM
self-cleavage kobs at 640 uM GlcN6P (glucosamine-6-phosphate [5]): 0.000119 ± 1.9e-05 s⁻¹
self-cleavage kobs at 2500 uM GlcN6P (glucosamine-6-phosphate [6]): 0.000176 ± 2.5e-05 s⁻¹
self-cleavage kobs at 10000 uM GlcN6P (glucosamine-6-phosphate [7]): 0.000295 ± 4.8e-05 s⁻¹

A15C U46A
kcat (glucosamine-6-phosphate [1]): 0.000358 ± 0.00016 s⁻¹
self-cleavage kobs at 640 uM GlcN6P (glucosamine-6-phosphate [5]): 0.000102 ± 2.1e-05 s⁻¹
self-cleavage kobs at 2500 uM GlcN6P (glucosamine-6-phosphate [6]): 0.000152 ± 3.8e-05 s⁻¹
self-cleavage kobs at 10000 uM GlcN6P (glucosamine-6-phosphate [7]): 0.000416 ± 9.4e-05 s⁻¹

A14U U54C C67U
kcat (glucosamine-6-phosphate [1]): 0.00203 ± 0.00034 s⁻¹
KM (glucosamine-6-phosphate [2]): 1680 ± 410 µM
self-cleavage kobs at 40 uM GlcN6P (glucosamine-6-phosphate [3]): 5.21e-05 ± 1.9e-05 s⁻¹
self-cleavage kobs at 160 uM GlcN6P (glucosamine-6-phosphate [4]): 0.000164 ± 2.3e-05 s⁻¹
self-cleavage kobs at 640 uM GlcN6P (glucosamine-6-phosphate [5]): 0.000887 ± 0.00023 s⁻¹
self-cleavage kobs at 2500 uM GlcN6P (glucosamine-6-phosphate [6]): 0.00131 ± 0.00025 s⁻¹
self-cleavage kobs at 10000 uM GlcN6P (glucosamine-6-phosphate [7]): 0.00163 ± 0.0003 s⁻¹

A15G C34G C68A
kcat (glucosamine-6-phosphate [1]): 2.44e-05 ± 5.8e-06 s⁻¹

A15G G29U
kcat (glucosamine-6-phosphate [1]): 0.00177 ± 0.00076 s⁻¹
self-cleavage kobs at 40 uM GlcN6P (glucosamine-6-phosphate [3]): 6.06e-05 ± 1.7e-05 s⁻¹
self-cleavage kobs at 160 uM GlcN6P (glucosamine-6-phosphate [4]): 0.000104 ± 4.4e-05 s⁻¹
self-cleavage kobs at 640 uM GlcN6P (glucosamine-6-phosphate [5]): 0.000265 ± 0.0001 s⁻¹
self-cleavage kobs at 2500 uM GlcN6P (glucosamine-6-phosphate [6]): 0.00118 ± 0.00039 s⁻¹
self-cleavage kobs at 10000 uM GlcN6P (glucosamine-6-phosphate [7]): 0.00145 ± 0.00039 s⁻¹

A15C U56C
kcat (glucosamine-6-phosphate [1]): 0.00118 ± 0.00019 s⁻¹
KM (glucosamine-6-phosphate [2]): 2470 ± 690 µM
self-cleavage kobs at 160 uM GlcN6P (glucosamine-6-phosphate [4]): 8.66e-05 ± 1.7e-05 s⁻¹
self-cleavage kobs at 640 uM GlcN6P (glucosamine-6-phosphate [5]): 0.000202 ± 3.2e-05 s⁻¹
self-cleavage kobs at 2500 uM GlcN6P (glucosamine-6-phosphate [6]): 0.000708 ± 9.2e-05 s⁻¹
self-cleavage kobs at 10000 uM GlcN6P (glucosamine-6-phosphate [7]): 0.000914 ± 9.9e-05 s⁻¹
